From the supplement of paper PMC11246515 come the findings set out here.

The nature of this data set: total protein half-life in vivo (active degradation + dilution); higher = more stable protein.
Where [1] appears, read: E. coli NCM3722 delta-clpP delta-lon delta-hslV, growth: N-lim chemostat, doubling time 6 h.
[2] abbreviates: E. coli NCM3722 delta-clpP, growth: N-lim chemostat, doubling time 6 h.
Setting [3] is: E. coli NCM3722 delta-hslV, growth: N-lim chemostat, doubling time 6 h.
[4] abbreviates: E. coli NCM3722 delta-lon, growth: N-lim chemostat, doubling time 6 h.
Setting [5] is: E. coli NCM3722 delta-smpB, growth: N-lim chemostat, doubling time 6 h.
Setting [6] is: wild type E. coli NCM3722, growth: C-lim chemostat, doubling time 3 h.
[7] abbreviates: wild type E. coli NCM3722, growth: C-lim chemostat, doubling time 6 h.
[8] abbreviates: wild type E. coli NCM3722, growth: C-lim chemostat, doubling time 12 h.
Setting [9] is: wild type E. coli NCM3722, growth: N-lim chemostat, doubling time 6 h.
[10] abbreviates: wild type E. coli NCM3722, growth: N-lim chemostat, doubling time 12 h.
The mark [11] stands for this setting: wild type E. coli NCM3722, growth: P-lim chemostat, doubling time 6 h.
Where [12] appears, read: wild type E. coli NCM3722, growth: P-lim chemostat, doubling time 12 h.

± gives the standard deviation of the averaged measurements.

“MAIEQTAITRATFDEVILPIYAPAEFIPVKGQGSRIWDQQGKEYVDFAGGIAVTALGHCHPALVNALKTQGETLWHISNVFTNEPALRLGRKLIEATFAERVVFMNSGTEANETAFKLARHYACVRHSPFKTKIIAFHNAFHGRSLFTVSVGGQPKYSDGFGPKPADIIHVPFNDLHAVKAVMDDHTCAVVVEPIQGEGGVTAATPEFLQGLRELCDQHQALLVFDEVQCGMGRTGDLFAYMHYGVTPDILTSAKALGGGFPISAMLTTAEIASAFHPGSHGSTYGGNPLACAVAGAAFDIINTPEVLEGIQAKRQRFVDHLQKIDQQYDVFSDIRGMGLLIGAELKPQYKGRARDFLYAGAEAGVMVLNAGPDVMRFAPSLVVEDADIDEGMQRFAHAVAKVVGA”: the “total protein half-life in vivo” value amounted to 5.24 ± 0.26 h under setting [1]; 4.41 ± 0.43 h under setting [2]; 4.47 ± 0.0086 h under setting [3]; 4.76 ± 0.3 h under setting [4]; 4.4 ± 0.099 h under setting [5]; 3.53 ± 0.35 h under setting [6]. For the same sequence, the “total protein half-life in vivo” value by setting is: under setting [7], 6.1 ± 0.17 h; under setting [8], 9.18 ± 0.29 h; under setting [9], 4.42 ± 0.3 h; under setting [10], 7.08 ± 0.24 h; under setting [11], 5.71 ± 0.09 h; under setting [12], 11.36 ± 0.11 h.
For the sequence “MEMYFKRMKDEWTGLVEQADPPIRAKAAEIAVAHAHYLSIEFYRIVRIDPHAEEFLSNEQVERQLKSAMERWIINVLSAQVDDVERLIQIQHTVAEVHARIGIPVEIVEMGFRVLKKILYPVIFSSDYSAAEKLQVYHFSINSIDIAMEVMTRAFTFSDSSASKEDENYRIFSLLENAEEEKERQIASILSWEIDIIYKILLDSDLGSSLPLSQADFGLWFNHKGRHYFSGIAEVGHISRLIQDFDGIFNQTMRNTRNLNNRSLRVKFLLQIRNTVSQIITLLRELFEEVSRHEVGMDVLTKLLNRRFLPTIFKREIAHANRTGTPLSVLIIDVDKFKEINDTWGHNTGDEILRKVSQAFYDNVRSSDYVFRYGGDEFIIVLTEASENETLRTAERIRSRVEKTKLKAANGEDIALSLSIGAAMFNGHPDYERLIQIADEALYIAKRRGRNRVELWKASL [P0AA89]”, the “total protein half-life in vivo” value reads like this: under setting [1], 6.71 ± 1.4 h; under setting [2], 3.48 ± 0.94 h; under setting [3], 2.854 ± 0.0076 h; under setting [4], 4.26 ± 0.88 h; under setting [5], 2.81 ± 0.03 h; under setting [6], 1.66 ± 0.26 h. For the same sequence, the “total protein half-life in vivo” value worked out at 3.16 ± 0.017 h under setting [7]; 4.49 ± 0.37 h under setting [8]; 3.21 ± 0.42 h under setting [9]; 4.83 ± 0.27 h under setting [10]; 1.49 ± 0.32 h under setting [11]; 3.09 ± 0.069 h under setting [12].
As to “MATLLQLHFAFNGPFGDAMAEQLKPLAESINQEPGFLWKVWTESEKNHEAGGIYLFTDEKSALAYLEKHTARLKNLGVEEVVAKVFDVNEPLSQINQAKLA [P0ACX3]”, the “total protein half-life in vivo” value under setting [1] came out at 5.41 ± 1.1 h; the “total protein half-life in vivo” value under setting [2] was 3.68 ± 0.39 h; the “total protein half-life in vivo” value under setting [3] came to 3.94 ± 0.085 h; the “total protein half-life in vivo” value under setting [4] amounted to 5.96 ± 0.17 h; the “total protein half-life in vivo” value under setting [5] amounted to 4.07 ± 0.095 h; the “total protein half-life in vivo” value under setting [6] was 3.22 ± 0.24 h. Besides, the “total protein half-life in vivo” value under setting [7] was found to be 4.809 ± 0.035 h; the “total protein half-life in vivo” value under setting [8] stood at 8.79 ± 2.3 h; the “total protein half-life in vivo” value under setting [9] is 3.27 ± 0.054 h; the “total protein half-life in vivo” value under setting [10] amounted to 5.75 ± 0.85 h; the “total protein half-life in vivo” value under setting [11] worked out at 4.79 ± 0.49 h; the “total protein half-life in vivo” value under setting [12] stood at 10.1 ± 1.1 h.
Take “MSIAVTTTDPTNTGVSTTSSSSLTGSNAADLQSSFLTLLVAQLKNQDPTNPMENNELTSQLAQISTVSGIEKLNTTLGSISGQIDNSQSLQASNLIGHGVMIPGTTVLAGTGSEEGAVTTTTPFGVELQQAADKVTATITDKNGAVVRTIDIGELTAGVHSFTWDGTLTDGSTAPNGSYNVAISASNGGTQLVAQPLQFALVQGVIRGNSGNTLDLGTYGTTTLDEVRQII”: the “total protein half-life in vivo” value by setting is: under setting [1], 3.99 ± 0.28 h; under setting [6], 0.36 ± 0.076 h; under setting [7], 1.65 h; under setting [8], 0.363 h.
For “MSANAETQTPQQPVKKSGKRKRLLLLLTLLFIIIAVAIGIYWFLVLRHFEETDDAYVAGNQIQIMSQVSGSVTKVWADNTDFVKEGDVLVTLDPTDARQAFEKAKTALASSVRQTHQLMINSKQLQANIEVQKIALAKAQSDYNRRVPLGNANLIGREELQHARDAVTSAQAQLDVAIQQYNANQAMILGTKLEDQPAVQQAATEVRNAWLALERTRIISPMTGYVSRRAVQPGAQISPTTPLMAVVPATNMWVDANFKETQIANMRIGQPVTITTDIYGDDVKYTGKVVGLDMGTGSAFSLLPAQNATGNWIKVVQRLPVRIELDQKQLEQYPLRIGLSTLVSVNTTNRDGQVLANKVRSTPVAVSTAREISLAPVNKLIDDIVKANAG”, the “total protein half-life in vivo” value was 6.17 ± 0.42 h under setting [1]; 6.38 ± 0.53 h under setting [2]; 6.57 ± 0.12 h under setting [3]; 6.37 ± 0.58 h under setting [4]; 6.1 ± 0.26 h under setting [5]; 2.99 ± 0.1 h under setting [6]. Also, the “total protein half-life in vivo” value is, setting by setting: under setting [7], 6.37 ± 0.2 h; under setting [8], 13.5 ± 1.8 h; under setting [9], 6.17 ± 0.1 h; under setting [10], 12 ± 0.35 h; under setting [11], 6.47 ± 0.29 h; under setting [12], 13.6 ± 2.7 h.
Consider “MSFATISVIGLGYIGLPTAAAFASRQKQVIGVDINQHAVDTINRGEIHIVEPDLASVVKTAVEGGFLRASTTPVEADAWLIAVPTPFKGDHEPDMTYVESAARSIAPVLKKGALVILESTSPVGSTEKMAEWLAEMRPDLTFPQQVGEQADVNIAYCPERVLPGQVMVELIKNDRVIGGMTPVCSARASELYKIFLEGECVVTNSRTAEMCKLTENSFRDVNIAFANELSLICADQGINVWELIRLANRHPRVNILQPGPGVGGHCIAVDPWFIVAQNPQQARLIRTAREVNDHKPFWVIDQVKAAVADCLAATDKRASELKIACFGLAFKPNIDDLRESPAMEIAELIAQWHSGETLVVEPNIHQLPKKLTGLCTLAQLDEALATADVLVMLVDHSQFKVINGDNVHQQYVVDAKGVWR”, for which the “total protein half-life in vivo” value by setting is: under setting [1], 5.3 ± 0.14 h; under setting [3], 5.1 ± 0.76 h; under setting [4], 4.6415 ± 0.0014 h; under setting [5], 4.11 ± 0.081 h; under setting [6], 2.91 ± 0.71 h; under setting [7], 7.21 ± 1.1 h. Moreover, the “total protein half-life in vivo” value by setting is: under setting [8], 9.93 ± 3 h; under setting [9], 5 ± 0.43 h; under setting [10], 8.104 ± 0.048 h; under setting [11], 5.77 ± 0.07 h; under setting [12], 12.5 ± 1.5 h.
